{
  "source": "patent US20130260455A1",
  "about": "(ONCOMED PHARMACEUTICALS, published 2013)",
  "binders": {"B1": {"name": "59R1 Fab (Fab, V domains shown)", "VH": "QVQLVESGGGLVQPGGSLRLSCAASGFTFSSSGMSWVRQAPGKGLEWVSVIASSGSNTYYADSVKGRFTISRDNSKNTLYLQMNSLRAEDTAVYYCARGIFFAIWGQGTLVTVSS", "VL": "not shown", "notes": "also called Clone 1; 59R Fab antibody"}, "B2": {"name": "59R5 antibody (antibody, human IgG2, kappa, V domains shown)", "VH": "B1 VH with Q1E, G99S, F102Y, A103T, I104T", "VL": "not shown", "notes": "Human IgG2; also called anti-Notch2/3 antibody 59R5; 59R5 IgG2"}},
  "key": {"[1]": {"target": "T1, hN2 12-12 (human Notch2 amino acids 454-493 fused to hFc) (human, UniProt Q04721 454-493)", "T1 construct": "not shown: constant region of human IgG (hFc)", "T1 chain": "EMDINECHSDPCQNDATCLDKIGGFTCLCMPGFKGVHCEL", "experiment": "capture ELISA: hN2-hFc from HEK-293 supernatant on anti-human Fc plates, 59R1 Fab, HRP anti-human Fab [lower graph]", "experimental": "(§1) The binding of anti-Notch2/3 antibodies to supernatant from HEK 293 cells transfected with sequences encoding recombinant human Notch2 Fc fusion proteins comprising the full length human Notch2 protein or various human Notch2 deletion constructs containing various deletions of EGF repeats one to twelve were tested by ELISA. HEK-293 cells were transiently transfected with pcDNA 3.1 (Invitrogen) with hNotch2 cDNA's encoding for the indicated amino acids fused to the constant region of human IgG (hFc). Supernatants were harvested 48 hours later. To capture hN2-hfc proteins, 96 well plates were first coated with goat anti-human Fec gamma specific IgG (Jackson Immunochemicals, #109-006-098) at 100 ng per well in sodium bicarbonate buffer overnight at 4°. Plates were washed and blocked in 5% bovine serum/PBS-Tween-20. Supernatants were added to plates and incubated at room temperature for 1 hour. Plates were washed in PBS-T. 59R1 Fab was added at 10 μg/ml in 5% serum/PBS-T and incubated at room temperature for 1 hour. Plates were washed in PBS-T. Fab binding was detected by goat anti-human Fab specific antibody conjugated to horseradish peroxidase (Thermo. #31414) diluted 1:5000 in 5% serum/PBS-T for 1 hour at room temperature. Plates were washed and developed with 1 Step Ultra TMB (Thermo. #34028). Plates were read on a Perkin Elmer Victor 1420 plate reader. […] (FIG. 3A)."}, "[2]": {"target": "T2, hN2 11-12 (human Notch2 amino acids 413-493 fused to hFc) (human, UniProt Q04721 413-493)", "T2 construct": "not shown: constant region of human IgG (hFc)", "T2 sequence": "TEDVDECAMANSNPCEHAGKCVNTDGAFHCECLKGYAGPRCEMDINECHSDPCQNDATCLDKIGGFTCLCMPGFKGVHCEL", "experiment": "capture ELISA: hN2-hFc from HEK-293 supernatant on anti-human Fc plates, 59R1 Fab, HRP anti-human Fab [lower graph]", "experimental": "as §1"}, "[3]": {"target": "T3, hN2 1-9 (human Notch2 amino acids 1-378 fused to hFc) (human, UniProt Q04721 26-378)", "T3 construct": "not shown: constant region of human IgG (hFc)", "T3 sequence": "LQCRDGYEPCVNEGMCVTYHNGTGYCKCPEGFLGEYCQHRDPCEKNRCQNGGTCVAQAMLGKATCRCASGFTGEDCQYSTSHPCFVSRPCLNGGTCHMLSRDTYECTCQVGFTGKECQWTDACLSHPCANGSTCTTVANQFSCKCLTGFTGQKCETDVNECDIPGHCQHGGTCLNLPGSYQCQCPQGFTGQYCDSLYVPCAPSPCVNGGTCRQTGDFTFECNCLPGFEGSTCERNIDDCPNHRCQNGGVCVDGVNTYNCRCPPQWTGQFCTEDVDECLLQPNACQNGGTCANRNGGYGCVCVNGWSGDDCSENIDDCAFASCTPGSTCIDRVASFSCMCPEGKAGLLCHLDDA", "experiment": "capture ELISA: hN2-hFc from HEK-293 supernatant on anti-human Fc plates, 59R1 Fab, HRP anti-human Fab [upper graph]", "experimental": "as §1"}, "[4]": {"target": "T4, hN2 1-7 (human Notch2 amino acids 1-301 fused to hFc) (human, UniProt Q04721 26-301)", "T4 construct": "not shown: constant region of human IgG (hFc)", "T4 sequence": "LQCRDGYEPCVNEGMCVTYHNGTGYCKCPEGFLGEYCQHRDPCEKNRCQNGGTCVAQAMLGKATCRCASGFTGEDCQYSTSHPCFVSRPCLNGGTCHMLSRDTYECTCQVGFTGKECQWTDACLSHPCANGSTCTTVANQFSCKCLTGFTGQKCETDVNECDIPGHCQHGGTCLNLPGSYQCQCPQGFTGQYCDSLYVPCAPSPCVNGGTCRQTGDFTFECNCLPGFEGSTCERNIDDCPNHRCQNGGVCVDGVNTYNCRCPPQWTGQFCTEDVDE", "experiment": "capture ELISA: hN2-hFc from HEK-293 supernatant on anti-human Fc plates, 59R1 Fab, HRP anti-human Fab [upper graph]", "experimental": "as §1"}, "[5]": {"target": "T5, hN2 1-4 (human Notch2 amino acids 1-181 fused to hFc) (human, UniProt Q04721 26-181)", "T5 construct": "not shown: constant region of human IgG (hFc)", "experiment": "capture ELISA: hN2-hFc from HEK-293 supernatant on anti-human Fc plates, 59R1 Fab, HRP anti-human Fab [upper graph]", "experimental": "as §1"}, "[6]": {"target": "T6, hN2 1-6 (human Notch2 amino acids 1-263 fused to hFc) (human, UniProt Q04721 26-263)", "T6 construct": "not shown: constant region of human IgG (hFc)", "T6 sequence": "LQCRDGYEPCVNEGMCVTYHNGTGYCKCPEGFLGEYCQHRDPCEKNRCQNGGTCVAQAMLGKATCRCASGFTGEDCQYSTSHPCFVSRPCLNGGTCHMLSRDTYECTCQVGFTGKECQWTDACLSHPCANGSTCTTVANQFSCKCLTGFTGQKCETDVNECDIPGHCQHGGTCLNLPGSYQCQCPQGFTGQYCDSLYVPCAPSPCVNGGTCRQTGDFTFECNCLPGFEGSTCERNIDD", "experiment": "capture ELISA: hN2-hFc from HEK-293 supernatant on anti-human Fc plates, 59R1 Fab, HRP anti-human Fab [upper graph]", "experimental": "as §1"}, "[7]": {"target": "T7, hN2 1-5 (human Notch2 amino acids 1-221 fused to hFc) (human, UniProt Q04721 26-221)", "T7 construct": "not shown: constant region of human IgG (hFc)", "experiment": "capture ELISA: hN2-hFc from HEK-293 supernatant on anti-human Fc plates, 59R1 Fab, HRP anti-human Fab [upper graph]", "experimental": "as §1"}, "[8]": {"target": "T8, hN2 1-3 (human Notch2 amino acids 1-144 fused to hFc) (human, UniProt Q04721 26-144)", "T8 construct": "Supernatant of transfected HEK-293 cells, captured with anti-human Fc; not shown: constant region of human IgG (hFc)", "experiment": "capture ELISA: hN2-hFc from HEK-293 supernatant on anti-human Fc plates, 59R1 Fab, HRP anti-human Fab [upper graph]", "experimental": "as §1"}, "[9]": {"target": "T9, hN2 1-8 (human Notch2 amino acids 1-341 fused to hFc) (human, UniProt Q04721 26-341)", "T9 construct": "not shown: constant region of human IgG (hFc)", "T9 sequence": "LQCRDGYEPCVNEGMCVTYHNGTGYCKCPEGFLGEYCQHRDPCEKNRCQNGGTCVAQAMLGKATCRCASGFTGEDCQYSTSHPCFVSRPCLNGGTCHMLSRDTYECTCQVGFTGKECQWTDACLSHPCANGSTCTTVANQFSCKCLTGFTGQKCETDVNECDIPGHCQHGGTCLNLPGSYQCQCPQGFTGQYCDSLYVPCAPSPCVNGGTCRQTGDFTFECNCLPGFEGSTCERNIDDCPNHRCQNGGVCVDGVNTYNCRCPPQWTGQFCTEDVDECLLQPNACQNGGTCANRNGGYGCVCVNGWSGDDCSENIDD", "experiment": "capture ELISA: hN2-hFc from HEK-293 supernatant on anti-human Fc plates, 59R1 Fab, HRP anti-human Fab [upper graph]", "experimental": "as §1"}, "[10]": {"target": "T10, human Notch1, full length, on transfected cells (human, UniProt P46531 19-2555)", "T10 construct": "also called hNotch1", "T10 sequence (P46531 19-2555 limits assumed)": "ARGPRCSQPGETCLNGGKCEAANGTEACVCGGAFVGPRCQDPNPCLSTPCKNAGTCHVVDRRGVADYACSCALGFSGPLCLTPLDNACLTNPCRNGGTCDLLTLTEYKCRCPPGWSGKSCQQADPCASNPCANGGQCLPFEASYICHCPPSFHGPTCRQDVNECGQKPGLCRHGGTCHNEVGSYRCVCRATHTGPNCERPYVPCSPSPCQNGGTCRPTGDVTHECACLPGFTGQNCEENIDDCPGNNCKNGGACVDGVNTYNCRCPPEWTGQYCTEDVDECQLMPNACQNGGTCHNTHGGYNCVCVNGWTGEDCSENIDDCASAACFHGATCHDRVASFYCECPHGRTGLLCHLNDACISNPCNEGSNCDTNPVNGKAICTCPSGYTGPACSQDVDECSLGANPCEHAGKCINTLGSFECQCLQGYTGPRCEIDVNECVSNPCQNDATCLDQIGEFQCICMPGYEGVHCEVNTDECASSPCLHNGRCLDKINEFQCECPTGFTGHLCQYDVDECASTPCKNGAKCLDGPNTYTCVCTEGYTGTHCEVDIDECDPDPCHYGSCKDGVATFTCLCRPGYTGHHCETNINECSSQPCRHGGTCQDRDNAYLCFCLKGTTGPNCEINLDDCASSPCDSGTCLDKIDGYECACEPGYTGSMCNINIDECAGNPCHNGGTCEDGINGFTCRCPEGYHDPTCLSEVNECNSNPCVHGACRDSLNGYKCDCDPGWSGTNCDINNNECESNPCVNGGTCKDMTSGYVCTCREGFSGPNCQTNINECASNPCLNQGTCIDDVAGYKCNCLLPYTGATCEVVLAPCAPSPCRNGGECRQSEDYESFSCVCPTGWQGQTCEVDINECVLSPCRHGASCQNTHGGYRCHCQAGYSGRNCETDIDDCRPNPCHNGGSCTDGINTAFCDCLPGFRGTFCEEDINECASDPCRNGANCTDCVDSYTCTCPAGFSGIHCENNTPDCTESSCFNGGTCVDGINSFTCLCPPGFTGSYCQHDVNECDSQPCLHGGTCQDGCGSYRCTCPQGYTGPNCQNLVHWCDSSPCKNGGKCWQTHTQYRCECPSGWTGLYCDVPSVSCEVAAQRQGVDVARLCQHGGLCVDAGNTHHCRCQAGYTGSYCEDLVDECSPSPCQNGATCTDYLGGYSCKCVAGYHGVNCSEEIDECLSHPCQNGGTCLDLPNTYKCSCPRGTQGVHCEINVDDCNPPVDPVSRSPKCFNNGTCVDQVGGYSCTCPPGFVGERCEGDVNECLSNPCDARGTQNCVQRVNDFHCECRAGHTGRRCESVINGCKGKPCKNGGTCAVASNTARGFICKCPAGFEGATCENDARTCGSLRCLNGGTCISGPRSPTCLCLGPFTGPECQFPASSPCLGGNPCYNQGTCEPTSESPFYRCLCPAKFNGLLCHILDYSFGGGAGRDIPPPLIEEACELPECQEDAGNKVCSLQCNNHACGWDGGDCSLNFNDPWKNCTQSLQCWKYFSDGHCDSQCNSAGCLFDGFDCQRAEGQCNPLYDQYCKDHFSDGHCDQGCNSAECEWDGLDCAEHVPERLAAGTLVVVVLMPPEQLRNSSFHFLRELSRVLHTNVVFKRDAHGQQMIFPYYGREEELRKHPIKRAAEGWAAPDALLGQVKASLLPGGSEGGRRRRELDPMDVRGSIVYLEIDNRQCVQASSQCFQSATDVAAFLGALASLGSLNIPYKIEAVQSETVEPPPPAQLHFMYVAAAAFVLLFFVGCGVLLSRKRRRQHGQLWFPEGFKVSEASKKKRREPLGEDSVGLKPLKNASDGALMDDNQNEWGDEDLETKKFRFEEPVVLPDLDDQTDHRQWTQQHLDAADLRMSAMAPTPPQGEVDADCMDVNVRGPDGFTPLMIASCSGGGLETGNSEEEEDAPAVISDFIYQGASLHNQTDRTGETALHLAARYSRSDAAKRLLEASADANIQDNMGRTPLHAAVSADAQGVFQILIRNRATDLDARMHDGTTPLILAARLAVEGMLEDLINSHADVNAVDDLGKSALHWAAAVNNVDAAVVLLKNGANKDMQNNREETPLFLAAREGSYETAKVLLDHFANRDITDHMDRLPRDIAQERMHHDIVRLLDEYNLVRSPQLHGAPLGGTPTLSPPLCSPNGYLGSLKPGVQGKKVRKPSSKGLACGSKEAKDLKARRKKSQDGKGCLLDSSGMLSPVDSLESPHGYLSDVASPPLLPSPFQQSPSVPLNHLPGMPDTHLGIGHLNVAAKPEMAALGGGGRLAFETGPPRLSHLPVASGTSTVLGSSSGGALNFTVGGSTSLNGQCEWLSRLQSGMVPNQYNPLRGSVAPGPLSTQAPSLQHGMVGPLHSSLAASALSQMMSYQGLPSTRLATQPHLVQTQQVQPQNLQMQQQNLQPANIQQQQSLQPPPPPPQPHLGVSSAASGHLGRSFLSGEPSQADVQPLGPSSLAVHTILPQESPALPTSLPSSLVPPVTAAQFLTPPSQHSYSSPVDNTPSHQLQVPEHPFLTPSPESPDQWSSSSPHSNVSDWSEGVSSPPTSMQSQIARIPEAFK", "experiment": "FACS on HEK 293 cells transiently transfected with Notch1 Full Length and GFP", "experimental": "FIG. 15. In vitro characterization of 59R5. […] PC3 tumor cells were transiently transfected with human or mouse Notch receptor (hN2, human Notch2; mN2, murine Notch2; hN3, human Notch3; mN3, murine Notch3) and GFP inducible reporter construct. Transfected cells were incubated with different concentrations of antibody 59R1 and 59R5 in the presence of passively immobilized DLL4 Fc. […] Cells were also co-transfected with a plasmid encoding green fluorescent protein (GFP) to mark those cells that received transfected plasmid. Cells were incubated with 59R1 or 59R5 and fluorescent secondary antibody and then examined by FACS.\nThe binding epitope of 59R5 was determined. As was described in Example 3 for analysis of antibody 59R1, several point mutants were created within full-length Notch1, converting residues within EGF10 to the corresponding amino acids in human Notch 2. Mutants in full-length Notch sequences were generated by QuikChange® mutagenesis (Stratagene) and verified by sequencing. […] Cells were also co-transfected with a plasmid encoding green fluorescent protein (GFP) to mark those cells that received transfected plasmid. Cells were incubated with 59R1 or 59R5 and fluorescent secondary antibody and then examined by FACS. 59R1 and 59R5 were detected by PE-conjugated goat anti-human Fc gamma specific antibody (Jackson Immunochemicals, #109-116-170)."}, "[11]": {"target": "T11, recombinant mouse Notch2 (EGF10-15) (mouse, UniProt O35516 375-605)", "T11 construct": "domain: EGF10-15; also called mNotch2; m-Notch2", "T11 sequence (looked up)": "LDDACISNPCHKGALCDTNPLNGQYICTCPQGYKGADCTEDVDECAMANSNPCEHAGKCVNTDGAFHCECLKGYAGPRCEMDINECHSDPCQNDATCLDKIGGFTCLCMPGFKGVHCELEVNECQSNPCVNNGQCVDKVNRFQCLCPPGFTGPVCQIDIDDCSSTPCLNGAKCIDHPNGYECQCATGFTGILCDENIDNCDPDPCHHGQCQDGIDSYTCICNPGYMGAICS", "experiment": "Biacore SPR"}, "[12]": {"target": "T12, recombinant human Notch3 (EGF9-14) (human, UniProt Q9UM47 351-580)", "T12 construct": "The whole entry for hNotch3 is named here; also called hNotch3; h-Notch3", "T12 sequence": "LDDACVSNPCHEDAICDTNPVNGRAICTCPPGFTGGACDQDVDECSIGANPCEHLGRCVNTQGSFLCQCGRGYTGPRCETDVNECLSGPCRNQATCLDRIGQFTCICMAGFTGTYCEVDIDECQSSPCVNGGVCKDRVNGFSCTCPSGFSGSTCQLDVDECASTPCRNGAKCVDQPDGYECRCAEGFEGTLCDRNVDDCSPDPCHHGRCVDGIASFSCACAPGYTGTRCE", "experiment": "Biacore SPR"}, "[13]": {"target": "T13, recombinant mouse Notch3 (EGF9-14) (mouse, UniProt Q61982 352-581)", "T13 construct": "domain: EGF9-14; also called mNotch3; m-Notch3", "T13 sequence (looked up)": "T12 sequence with N22S, T153M, D193E, T227I", "experiment": "Biacore SPR"}, "[14]": {"target": "T14, human Notch2 as used in the Biacore analysis of Table 6 (construct not stated) (human, UniProt Q04721 375-605, limits assumed)", "T14 construct": "also called h-Notch2", "T14 sequence": "T11 sequence (looked up) with V121I, I191V, D194E", "experiment": "Biacore SPR"}},
  "note": "Positions count from the first letter of the chain named.",
  "data": [
    {"binder": "B1", "values": [
      {"measurement": "binding result", "setting": "[1]", "value": "no binding (tested: 10 ug/ml)"},
      {"measurement": "binding result", "setting": "[2]", "value": "no binding (tested: 10 ug/ml)"},
      {"measurement": "binding result", "setting": "[3]", "value": "no binding (tested: 10 ug/ml)"},
      {"measurement": "binding result", "setting": "[4]", "value": "no binding (tested: 10 ug/ml)"},
      {"measurement": "binding result", "setting": "[5]", "value": "no binding (tested: 10 ug/ml)"},
      {"measurement": "binding result", "setting": "[6]", "value": "no binding (tested: 10 ug/ml)"},
      {"measurement": "binding result", "setting": "[7]", "value": "no binding (tested: 10 ug/ml)"},
      {"measurement": "binding result", "setting": "[8]", "value": "no binding (tested: 10 ug/ml)"},
      {"measurement": "binding result", "setting": "[9]", "value": "no binding (tested: 10 ug/ml)"}
    ]},
    {"binder": "B2", "values": [
      {"measurement": "binding result", "setting": "[10]", "value": "no binding"},
      {"measurement": "Kd", "setting": "[11]", "value": 260, "unit": "pM"},
      {"measurement": "Kd", "setting": "[12]", "value": 220, "unit": "pM"},
      {"measurement": "Kd", "setting": "[13]", "value": 290, "unit": "pM"},
      {"measurement": "Kd", "setting": "[14]", "value": 50, "unit": "pM"}
    ]}
  ]
}
